From doi:10.1101/2025.01.23.634444

Biological target: VraS-H6x (recombinant full-length histidine kinase VraS of Staphylococcus aureus with C-terminal H6x tag) (Staphylococcus aureus USA300-TCH1516)
Test: SEC

VraS-H6x (recombinant full-length histidine kinase VraS of Staphylococcus aureus with C-terminal H6x tag) (enzyme), sequence (Q5HEN9 whole entry): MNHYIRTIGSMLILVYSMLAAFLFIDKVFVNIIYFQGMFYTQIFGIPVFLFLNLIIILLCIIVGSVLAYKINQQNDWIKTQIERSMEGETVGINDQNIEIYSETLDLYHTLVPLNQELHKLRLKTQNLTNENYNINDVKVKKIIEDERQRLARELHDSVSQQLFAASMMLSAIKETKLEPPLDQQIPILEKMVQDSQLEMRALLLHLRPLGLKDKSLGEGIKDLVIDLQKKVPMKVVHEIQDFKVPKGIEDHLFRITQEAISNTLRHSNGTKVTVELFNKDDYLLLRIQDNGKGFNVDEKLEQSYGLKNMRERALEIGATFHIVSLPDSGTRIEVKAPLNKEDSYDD

Substance: VraS-H6x (recombinant full-length histidine kinase VraS of Staphylococcus aureus with C-terminal H6x tag) (enzyme)
- stoichiometry N: 2
